Measurements as given in article PMC9063845.
Blank lines part the entries; values can stand above or below the substance they belong to.

Tests used:
Assay in all cases: SEC; preparative HiLoad 16/600 Superdex 200 pg (120 ml), 20 mM HEPES, 50 mM NaCl pH 7.5; elution at ~85 ml compared with protein standards (~60 kDa)
[1] = biological target: amilCP (Acropora millepora)
[2] = biological target: eforRed (Echinopora forsaliana)
[3] = biological target: spisPink (Stylophora pistillata)
[4] = biological target: gfasPurple (Galaxea fascicularis)

stoichiometry N [1]: 2
Substance: amilCP (natural protein)

stoichiometry N [2]: 2
Substance: eforRed (natural protein)

stoichiometry N [3]: 2
Substance: spisPink (natural protein)

stoichiometry N [4]: 2
Substance: gfasPurple (natural protein)
